Consider three molecules from patent publication US20190338034A1 (Genentech, published 2019).

Positions count from the first letter of the chain named.

The target of assay [1] is T1, atezolizumab (anti-PD-L1 antibody).
T1 construct: Full IgG/Ig kappa antibody as used in the IFE gel shift assays; also called anti-PDL1 antibody atezolizumab
The experiment in a line: immunofixation electrophoresis (Sebia IFE) gel shift, atezolizumab 1500 µg/mL in PBS pre-incubated 2 h with anti-ID antibody. For orientation: A gel shift assay detects complexes by their altered migration in electrophoresis.

The target of assay [2] is T2, anti-PDL1 Fab (Fab of anti-PD-L1 antibody atezolizumab).
T2 construct: Fab format (Genentech); also called anti-PDL1 antibody Fab
The experiment in a line: SPR (BIAcore), anti-idiotypic antibody captured by anti-mouse-Fc on CM5 chip, 500 nM anti-PDL1 Fab injected, 25 C, 1:1 Langmuir model. Here is the method:
(§1) Binding affinities of anti-PDL1 anti-ID antibodies were measured by Surface Plasmon Resonance (SPR) using a BIAcore™-[…] instrument. Anti-idiotypic antibodies were captured by an anti-mouse-Fc antibody coated on CM5 biosensor chips to achieve approximately 200 response units (RU). For kinetics measurements, 500 nM of anti-PDL1 Fab or framework control Fab (YW167B.43) (Genentech, South San Francisco, Calif.) were injected in HBS-P+ buffer (0.1M HEPES, 1.5M NaCl, 0.5% Surfactant P20—GE Life Science) at 25° C. with a flow rate of […]. Association rates (kₐ) and dissociation rates (kd) were calculated using a simple one-to-one Langmuir binding model (BIAcore Evaluation Software version 3.2). The equilibrium dissociation constant (KD) was calculated as the ratio koff/kₒₙ. See also FIG. 3-5.
On the technique in general: In SPR one partner is held on a chip, and binding of the other changes the refractive index at the surface.

Assay [3] addresses T2, anti-PDL1 Fab (Fab of anti-PD-L1 …). Kind of assay: SPR (BIAcore), anti-ID captured by anti-mouse-Fc on a CM5 chip, anti-PDL1 antibody Fab injected at 500 nM, 25 °C, 1:1 binding model. How it is done: as §1
The target in assay [4] is T3, YW167B.43 Negative Control.
T3 construct: also called framework control Fab
Kind of assay: SPR (BIAcore), anti-ID captured, YW167B.43 negative control Fab injected at 500 nM, 25 °C. The software prints this 1:1 fit under a flat sensorgram with no response. Here is the method: as §1

Assay [5] concerns the target T3, YW167B.43 Negative Control. Kind of assay: SPR (BIAcore), anti-ID captured, YW167B.43 negative control Fab injected at 500 nM, 25 °C. The software prints this 1:1 fit under a flat sensorgram with no positive response. How it is done: as §1

B1: anti-idiotypic anti-PD-L1 antibody 43B5 (antibody, mouse IgG2a, kappa, V domains shown)
VH: EVQLQQSGPELVKPGASVKISCKASGYSFTDYIMLWVKQSHGKSLEWIGNINPYYGSTSYNLKFKGKATLTVDKSSSTAYMQLNSLTSEDSAVYYCARWGGNYEGWFAYWGQGTLVTVSA
VL: DIKMTQSPSSMSVSLGDTVSITCHASQGISSNIGWLQQKPGKSFKGLIYHGTNLEDGVPSRFSGSGSGADYSLTISSLESEDFADYYCVQYAQFPLTFGAGTKLELKR
notes: Mouse monoclonal from a hybridoma
In the case of B1, in assay [1], the binding result is reported as “binds”. Moreover, in assay [2], the equilibrium dissociation constant (Kd) is 90.7 nM, the koff is 0.00862 s⁻¹ and the kon is 95000 M⁻¹ s⁻¹. Besides, in assay [3], the dissociation constant Kd worked out at 89 nM, the koff came out at 0.00878 s⁻¹ and the on-rate (kon) came to 98600 M⁻¹ s⁻¹. In assay [4], this molecule had an equilibrium dissociation constant (Kd) of 0.222 nM, a koff of 0.000128 s⁻¹ and an association rate constant (kon) of 574000 M⁻¹ s⁻¹.

B2: anti-idiotypic anti-PD-L1 antibody 105D11 (antibody, mouse IgG2a, kappa, V domains shown)
VH: EVQLVETGGGLVKPGGSLKLSCAASGFAFSSYDMSWVRQTPEKRLEWVAYISSGGGSTYYPDTVKGRFTISRDNAKNTLYLQMSSLKSEDTAMYYCARLVYYDYDDAMDYWGQGTSVTVSS
VL: DIVLTQSPAIMSASPGEKVTITCSASSSVSYMHWFQQKPGTSPKLWIYSTSNLASGVPARFSGSGSGTSYSLTISRMEAEDAATYYCQQRSSYPPTFGGGTRLEIKR
notes: as for B1
For the molecule B2, the binding result in assay [1] is “binds”. The Kd in assay [2] amounted to 16.5 nM; in assay [3] it was 17.5 nM; in assay [4], 31.7 nM. The koff in assay [2] stood at 0.0045 s⁻¹; in assay [3], 0.00648 s⁻¹; in assay [4], 1.66 s⁻¹. Moreover, the results for the on-rate (kon) in assay [2], in assay [3] and in assay [4] were 279000 M⁻¹ s⁻¹, 370000 M⁻¹ s⁻¹ and 5.23e+07 M⁻¹ s⁻¹, respectively.

B3: anti-idiotypic anti-PD-L1 antibody 48C1 (antibody, mouse IgG2a, kappa, V domains shown)
VH: B2 VH with T7S, L99T, V100I, D103G, A107V
VL: B2 VL with D1Q, S92G, R102K
notes: Mouse monoclonal from a hybridoma; also called atezolizumab anti-idiotypic mouse mAB clone 48C1; atezolizumab anti-ID antibody 48C1
As for B3, the binding result in assay [1] is listed as “binds”. In assay [2], this molecule registered an equilibrium dissociation constant (Kd) of 2.31 nM, a koff of 0.000977 s⁻¹ and a kon of 421000 M⁻¹ s⁻¹. Also, in assay [3], the Kd is 2.64 nM, the koff was determined as 0.000949 s⁻¹ and the on-rate constant (kon) came out at 360000 M⁻¹ s⁻¹. In assay [5], this molecule showed a dissociation constant (Kd) of 127 nM, an off-rate (koff) of 0.000421 s⁻¹ and a kon of 3310 M⁻¹ s⁻¹.

Usually Kd stands for the concentration at which binding is half-saturated. A high value points to weaker binding. By koff is commonly meant the first-order rate constant of dissociation. A low value points to a long-lived complex. What is called kon is the rate constant with which the complex forms.
